Assay results from article PMC10689251.

Target: RuBisCO large subunit CbbL (Cyanobium sp. PCC 7001)
Assay: cryo-EM structure; single-particle analysis of RuBisCO particles spilled from broken native α-carboxysomes of Cyanobium sp. PCC 7001 (sample ~1 mg/mL in TEMB buffer, graphene oxide coated grids); refined with D4 symmetry (2.87 Å) and without symmetry (3.79 Å); density for RuBP and magnesium in the active site

stoichiometry N: 8
Substance: RuBisCO large subunit CbbL (natural protein)
